Drawing on PMC4028238, this text covers relative binding affinity (IC50 ratio vs BV02) (IC50(BV02)/IC50) for three sequences.

This data set deals with Influenza A virus hemagglutinin (whole virus as assayed) (Influenza A virus H3N2 A/Texas/1977 (A/Texas/1/77)). Kind of data set: competition ELISA. Particulars: PBS, room temperature, […] (0.5-500 nM) […] (5 nM).
Consider “TCTCAGCCCCCGCTGAGTCAAAGCGCACCCCCCCCCCCCCCCCCCCTGCGCTTAA [BV37f]”, for which the relative binding affinity (IC50 ratio vs BV02) (IC50(BV02)/IC50) is 0.495.

“TCTCAGCCCCCGCTGAGTCAAAGCGCACCCCCCCCCCCCCCCCTGCGCTTAA [BV37e]”: the relative binding affinity (IC50 ratio vs BV02) (IC50(BV02)/IC50) came out at 0.995.

For the sequence “TTCCTCAGCAAAATAGCGGGGCTGAGCAACCGCAATACACTGGTAAAAAGTGCGGTTAAGA [BV37a]”, the relative binding affinity (IC50 ratio vs BV02) (IC50(BV02)/IC50) was found to be 0.874.
